Results on 19 molecules are retold here after patent US20260234228A1 (GENOME, published 2026).

T1: human CNTN4 overexpressed on cells (human, UniProt Q8IWV2 19-1000)
T1 construct: whole, on cells; the construct is not described; also called human CNTN4 cell; human CNTN4-overexpressing 293F cells
T1 sequence (looked up): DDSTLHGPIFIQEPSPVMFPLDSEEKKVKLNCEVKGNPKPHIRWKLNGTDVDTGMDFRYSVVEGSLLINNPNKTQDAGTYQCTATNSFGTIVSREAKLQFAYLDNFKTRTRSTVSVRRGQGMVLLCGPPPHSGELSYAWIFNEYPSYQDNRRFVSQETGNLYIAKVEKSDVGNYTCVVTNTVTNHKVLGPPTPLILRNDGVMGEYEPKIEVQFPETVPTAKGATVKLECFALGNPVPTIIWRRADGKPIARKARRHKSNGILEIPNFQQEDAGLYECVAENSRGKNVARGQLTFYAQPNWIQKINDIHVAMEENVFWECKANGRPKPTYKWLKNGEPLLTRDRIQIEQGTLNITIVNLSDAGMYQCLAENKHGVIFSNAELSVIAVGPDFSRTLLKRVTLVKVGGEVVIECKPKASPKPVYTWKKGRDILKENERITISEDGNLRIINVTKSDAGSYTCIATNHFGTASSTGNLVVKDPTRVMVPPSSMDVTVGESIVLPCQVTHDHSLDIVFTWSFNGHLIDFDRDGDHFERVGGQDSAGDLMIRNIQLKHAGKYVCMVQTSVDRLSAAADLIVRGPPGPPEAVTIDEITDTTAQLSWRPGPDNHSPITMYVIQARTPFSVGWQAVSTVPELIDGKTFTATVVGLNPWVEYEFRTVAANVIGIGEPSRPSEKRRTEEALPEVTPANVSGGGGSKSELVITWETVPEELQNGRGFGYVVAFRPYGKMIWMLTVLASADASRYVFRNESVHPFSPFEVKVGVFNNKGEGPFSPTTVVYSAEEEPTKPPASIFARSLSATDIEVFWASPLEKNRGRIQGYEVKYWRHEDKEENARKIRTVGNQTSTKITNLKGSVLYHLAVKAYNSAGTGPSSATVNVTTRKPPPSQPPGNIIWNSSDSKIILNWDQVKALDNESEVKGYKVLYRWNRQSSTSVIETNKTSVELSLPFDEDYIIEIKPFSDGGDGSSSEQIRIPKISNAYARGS

B1: A207 scFv (scFv, V domains shown)
VH: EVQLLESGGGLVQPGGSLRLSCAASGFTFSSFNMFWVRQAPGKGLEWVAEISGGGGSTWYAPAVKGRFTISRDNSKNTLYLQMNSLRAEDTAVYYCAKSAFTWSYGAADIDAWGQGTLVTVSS
VL: ELTQDPAVSVALGQTVRITCSGSSGSYGWYQQKPGQAPVLVIYDNTNRPSGIPDRFSGSSSGNTASLTITGAQAEDEADYYCGGYWGSTDVFGGGTKLTVL
B2: A201 scFv (scFv, V domains shown)
VH: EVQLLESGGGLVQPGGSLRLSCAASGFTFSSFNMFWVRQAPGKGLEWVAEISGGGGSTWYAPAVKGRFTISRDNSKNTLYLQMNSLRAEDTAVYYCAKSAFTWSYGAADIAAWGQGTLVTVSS
VL: ELTQDPAVSVALGQTVRITCSGRSGSYGWYQQKPGQAPVLVIYDNTNRPSGIPDRFSGSSSGNTASLTITGAQAEDEADYYCGGYWGSTDVFGGGTKLTVL
B3: A217 scFv (scFv, V domains shown)
VH: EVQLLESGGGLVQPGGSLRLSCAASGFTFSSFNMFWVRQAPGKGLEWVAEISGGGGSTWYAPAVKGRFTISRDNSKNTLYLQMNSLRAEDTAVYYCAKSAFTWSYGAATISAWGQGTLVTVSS
VL: ELTQDPAVSVALGQTVRITCSGSSGSYGWYQQKPGQAPVLVIYDNTNRPSGIPDRFSGSSSGNTASLTITGAQAEDEADYYCGGYWGSTDVFGGGTKLTVL
B4: A212 scFv (scFv, V domains shown)
VH: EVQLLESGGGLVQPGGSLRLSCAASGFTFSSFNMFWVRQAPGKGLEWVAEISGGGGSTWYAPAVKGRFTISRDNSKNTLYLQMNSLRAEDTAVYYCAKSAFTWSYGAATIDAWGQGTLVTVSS
VL: ELTQDPAVSVALGQTVRITCSGRSGSYGWYQQKPGQAPVLVIYDNTNRPSGIPDRFSGSSSGNTASLTITGAQAEDEADYYCGGYWGSTDVFGGGTKLTVL
B5: A206 scFv (scFv, V domains shown)
VH: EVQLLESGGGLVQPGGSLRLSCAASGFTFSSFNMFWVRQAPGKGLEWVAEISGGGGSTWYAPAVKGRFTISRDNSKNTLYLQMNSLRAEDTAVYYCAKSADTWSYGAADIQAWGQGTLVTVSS
VL: ELTQDPAVSVALGQTVRITCSGRSGSYGWYQQKPGQAPVLVIYDNTNRPSGIPDRFSGSSSGNTASLTITGAQAEDEADYYCGGYWGSTDVFGGGTKLTVL
B6: A202 scFv (scFv, V domains shown)
VH: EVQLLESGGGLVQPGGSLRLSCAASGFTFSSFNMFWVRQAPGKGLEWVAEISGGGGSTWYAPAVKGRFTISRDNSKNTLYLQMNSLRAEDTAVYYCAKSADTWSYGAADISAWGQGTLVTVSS
VL: ELTQDPAVSVALGQTVRITCSGRSGSYGWYQQKPGQAPVLVIYDNTNRPSGIPDRFSGSSSGNTASLTITGAQAEDEADYYCGGYWGSTDVFGGGTKLTVL
B7: A208 scFv (scFv, V domains shown)
VH: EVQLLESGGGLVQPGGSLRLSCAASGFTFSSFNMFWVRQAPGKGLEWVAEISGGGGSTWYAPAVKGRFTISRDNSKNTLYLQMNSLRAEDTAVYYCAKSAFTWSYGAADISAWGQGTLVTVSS
VL: ELTQDPAVSVALGQTVRITCSGSSGSYGWYQQKPGQAPVLVIYDNTNRPSGIPDRFSGSSSGNTASLTITGAQAEDEADYYCGGYWGSTDVFGGGTKLTVL
B8: A218 scFv (scFv, V domains shown)
VH: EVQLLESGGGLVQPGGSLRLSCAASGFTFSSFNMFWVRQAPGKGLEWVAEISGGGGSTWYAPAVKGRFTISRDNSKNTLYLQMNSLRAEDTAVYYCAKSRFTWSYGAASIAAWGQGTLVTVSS
VL: ELTQDPAVSVALGQTVRITCSGRSGSYGWYQQKPGQAPVLVIYDNTNRPSGIPDRFSGSSSGNTASLTITGAQAEDEADYYCGGYWGSTDVFGGGTKLTVL
B9: A209 scFv (scFv, V domains shown)
VH: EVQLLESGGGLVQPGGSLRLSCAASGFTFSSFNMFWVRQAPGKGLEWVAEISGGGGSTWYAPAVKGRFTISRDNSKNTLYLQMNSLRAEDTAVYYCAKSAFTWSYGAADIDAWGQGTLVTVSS
VL: ELTQDPAVSVALGQTVRITCSGRSGSYGWYQQKPGQAPVLVIYDNTNRPSGIPDRFSGSSSGNTASLTITGAQAEDEADYYCGGYWGSTDVFGGGTKLTVL
B10: A205 scFv (scFv, V domains shown)
VH: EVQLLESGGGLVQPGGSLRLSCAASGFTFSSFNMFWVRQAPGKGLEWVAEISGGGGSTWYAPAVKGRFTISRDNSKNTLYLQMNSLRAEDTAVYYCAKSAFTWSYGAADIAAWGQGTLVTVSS
VL: ELTQDPAVSVALGQTVRITCSGSSGSYGWYQQKPGQAPVLVIYDNTNRPSGIPDRFSGSSSGNTASLTITGAQAEDEADYYCGGYWGSTDVFGGGTKLTVL
B11: A216 scFv (scFv, V domains shown)
VH: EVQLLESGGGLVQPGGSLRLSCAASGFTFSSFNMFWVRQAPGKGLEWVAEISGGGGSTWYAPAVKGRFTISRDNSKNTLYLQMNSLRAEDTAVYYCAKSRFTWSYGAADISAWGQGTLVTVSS
VL: ELTQDPAVSVALGQTVRITCSGRSGSYGWYQQKPGQAPVLVIYDNTNRPSGIPDRFSGSSSGNTASLTITGAQAEDEADYYCGGYWGSTDVFGGGTKLTVL
B12: A214 scFv (scFv, V domains shown)
VH: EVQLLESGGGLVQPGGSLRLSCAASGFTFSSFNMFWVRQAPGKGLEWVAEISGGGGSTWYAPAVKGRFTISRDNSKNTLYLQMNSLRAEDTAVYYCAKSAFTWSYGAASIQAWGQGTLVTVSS
VL: ELTQDPAVSVALGQTVRITCSGSSGSYGWYQQKPGQAPVLVIYDNTNRPSGIPDRFSGSSSGNTASLTITGAQAEDEADYYCGGYWGSTDVFGGGTKLTVL
B13: A219 scFv (scFv, V domains shown)
VH: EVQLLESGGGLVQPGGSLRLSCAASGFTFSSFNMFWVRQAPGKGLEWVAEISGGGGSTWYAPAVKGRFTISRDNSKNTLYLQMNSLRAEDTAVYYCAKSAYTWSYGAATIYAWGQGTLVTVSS
VL: ELTQDPAVSVALGQTVRITCSGSSGSYGWYQQKPGQAPVLVIYDNTNRPSGIPDRFSGSSSGNTASLTITGAQAEDEADYYCGGYWGSTDVFGGGTKLTVL
B14: A213 scFv (scFv, V domains shown)
VH: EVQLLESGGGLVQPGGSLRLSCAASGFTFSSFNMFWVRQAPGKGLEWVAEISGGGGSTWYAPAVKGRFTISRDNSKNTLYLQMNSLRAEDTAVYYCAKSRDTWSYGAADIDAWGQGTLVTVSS
VL: ELTQDPAVSVALGQTVRITCSGSSGSYGWYQQKPGQAPVLVIYDNTNRPSGIPDRFSGSSSGNTASLTITGAQAEDEADYYCGGYWGSTDVFGGGTKLTVL
B15: A203 scFv (scFv, V domains shown)
VH: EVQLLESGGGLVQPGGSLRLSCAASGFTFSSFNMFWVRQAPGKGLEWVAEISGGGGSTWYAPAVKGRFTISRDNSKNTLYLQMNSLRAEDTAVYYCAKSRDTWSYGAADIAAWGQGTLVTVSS
VL: ELTQDPAVSVALGQTVRITCSGRSGSYGWYQQKPGQAPVLVIYDNTNRPSGIPDRFSGSSSGNTASLTITGAQAEDEADYYCGGYWGSTDVFGGGTKLTVL
B16: A204 scFv (scFv, V domains shown)
VH: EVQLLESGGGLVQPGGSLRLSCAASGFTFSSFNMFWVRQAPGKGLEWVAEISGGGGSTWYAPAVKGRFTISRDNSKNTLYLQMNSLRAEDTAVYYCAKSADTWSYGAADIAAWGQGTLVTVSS
VL: ELTQDPAVSVALGQTVRITCSGRSGSYGWYQQKPGQAPVLVIYDNTNRPSGIPDRFSGSSSGNTASLTITGAQAEDEADYYCGGYWGSTDVFGGGTKLTVL
B17: A215 scFv (scFv, V domains shown)
VH: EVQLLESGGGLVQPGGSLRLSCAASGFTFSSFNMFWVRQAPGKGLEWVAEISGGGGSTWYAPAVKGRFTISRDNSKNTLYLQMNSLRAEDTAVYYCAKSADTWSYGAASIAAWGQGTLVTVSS
VL: ELTQDPAVSVALGQTVRITCSGSSGSYGWYQQKPGQAPVLVIYDNTNRPSGIPDRFSGSSSGNTASLTITGAQAEDEADYYCGGYWGSTDVFGGGTKLTVL
B18: A210 scFv (scFv, V domains shown)
VH: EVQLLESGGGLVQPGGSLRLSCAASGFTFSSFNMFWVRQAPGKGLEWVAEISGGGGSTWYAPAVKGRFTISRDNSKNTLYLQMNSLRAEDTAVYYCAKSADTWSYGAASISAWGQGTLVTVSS
VL: ELTQDPAVSVALGQTVRITCSGRSGSYGWYQQKPGQAPVLVIYDNTNRPSGIPDRFSGSSSGNTASLTITGAQAEDEADYYCGGYWGSTDVFGGGTKLTVL
B19: A211 scFv (scFv, V domains shown)
VH: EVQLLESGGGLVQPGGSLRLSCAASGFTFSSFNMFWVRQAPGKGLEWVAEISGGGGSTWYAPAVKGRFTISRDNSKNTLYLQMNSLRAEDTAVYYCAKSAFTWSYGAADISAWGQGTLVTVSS
VL: ELTQDPAVSVALGQTVRITCSGRSGSYGWYQQKPGQAPVLVIYDNTNRPSGIPDRFSGSSSGNTASLTITGAQAEDEADYYCGGYWGSTDVFGGGTKLTVL

This assay concerns the target T1, human CNTN4 overexpressed on cells. As to the kind of experiment: FACS, scFv periplasm on human CNTN4-overexpressing 293F cells, PE anti-His detection. On the technique in general: A flow cytometer gives signals particle by particle.
The EC50 is the concentration giving half of the maximal effect. A lower EC50 goes with higher potency in that assay. As for B1, the EC50 amounted to 3.2 nM and the “Top MFI” value is 1620 MFI.
As to B2, the EC50 came to 3.2 nM and the “Top MFI” value came out at 1380 MFI.
Turning to B3, the 50% effective concentration (EC50) was determined as 2.8 nM and the “Top MFI” value worked out at 1740 MFI.
Taken in the same sequence, the figures for B4 were 2.7 nM and 1630 MFI.
For the molecule B5, the 50% effective concentration (EC50) is 4.8 nM and the “Top MFI” value is 1370 MFI.
With B6, the half-maximal effective concentration (EC50) came out at 3 nM and the “Top MFI” value came out at 1750 MFI.
The like results for B7 were, in that order, 3.7 nM and 1320 MFI.
Taken in the same sequence, the figures for B8 were 3.7 nM and 1290 MFI.
Taken in the same sequence, the figures for B9 were 2.3 nM and 1600 MFI.
In the case of B10, a half-maximal effect (EC50) was put at 2 nM and the “Top MFI” value is 1300 MFI.
The like results for B11 were, in that order, 2.9 nM and 1630 MFI.
With B12, the half-maximal effective concentration (EC50) turned out to be 3.5 nM and the “Top MFI” value is 1460 MFI.
Taken in the same sequence, the figures for B13 were 3.9 nM and 1270 MFI.
Taken in the same sequence, the figures for B14 were 3.2 nM and 1700 MFI.
Turning to B15, the EC50 came out at 3.3 nM and the “Top MFI” value is 1240 MFI.
The like results for B16 were, in that order, 1.7 nM and 1700 MFI.
As to B17, the EC50 was 3.6 nM and the “Top MFI” value is 1470 MFI.
For B18, the EC50 amounted to 4.4 nM and the “Top MFI” value worked out at 1380 MFI.
Taken in the same sequence, the figures for B19 were 3.1 nM and 1370 MFI.
